Results taken from publication PMC7452893 (Nature Communications, 2020).

What was measured:
Conditions in all cases: both partners purified
[1] = biological target: SARS-CoV-2 spike N-terminal domain (NTD) (SARS-CoV-2, Wuhan-Hu-1 (QHD43416), UniProt P0DTC2); test: ELISA; direct ELISA; plates coated with 2 μg/ml recombinant spike, S1, RBD or NTD; scFv-Fc detected with AP-conjugated anti-human IgG; specificity panel (Fig. 1c)
[2] = biological target: T1, SARS-CoV-2 spike S1 subunit (SARS-CoV-2, Wuhan-Hu-1 (QHD43416), UniProt P0DTC2); test: ELISA; direct ELISA; S1 as coating antigen (2 μg/ml), antibody diluted in series; apparent KD (Fig. 1d)
T1 construct: also called S1 domain

[3] = biological target: T1, SARS-CoV-2 spike S1 subunit; test: ELISA; direct ELISA; plates coated with 2 μg/ml recombinant spike, S1, RBD or NTD; scFv-Fc detected with AP-conjugated anti-human IgG; specificity panel (Fig. 1c)

B1: MD62 (antibody, V domains shown)
VH: EVQLVQSGGGLIQPGGSLRLSCAASGVTVSSNYMTWVRQAPGKGLEWVSLIYSGGSTYYADSVKGRFTISRDNSKNTLYLQMNSLRAEDTAVYYCARDLQYYGMDVWGQGTMVTVSS
VL: AIRMTQSPSSVSASVGDRVTITCRASQDIGSWLGWYQQKPGKAPKLLIYAASSLAGGVPSRFSGSGSGTDFTLTISSLQPEDFATYYCQQANSFPLTFGGGTKLEIK
notes: scFv-Fc format; also called MD62 scFv-Fc
Question: Does B1 bind [1]?
Answer: no binding

B2: MD63 (antibody, V domains shown)
VH: QVTLKESGGGVVQPGRSLRLSCAASGFTFSSYAMHWVRQAPGKGLEHVSAISSDGGITYFADSVKGRFTISRDNSRNTLFLQMSSLRVEDTAVYYCVKDQDSNSWYDAFDIWGRGTMVTVSS
VL: not shown
notes: scFv-Fc format; also called MD63 scFv-Fc
Question: What does the source list for B2?
Answer: Kd [2]: 15.6 nM; binding result [1]: no binding

B3: MD47 (antibody, V domains shown)
V domain 1: QMQLVQSGGGLVQPGGSLRLSCAASGFTFSSYAMSWVRQAPGKGLEWVSAISSGGSTYYADSVKGRFTISRDNSKNTLYLQMNSLRAEDTAVYYCAKDLVTAPSYEAFDIWGQGTMITVSS
V domain 2: NFMLTQPPSVSVAPGKTARITCGGNNIGSKSVHWYQQKPGQAPVLVIYYDSDRPSGIPERFSGSNSGNTATLTISRVEAGDEADYYCQVWDSSSHHHVVFGGGTKGTVL
notes: scFv-Fc format; also called MD47 scFv-Fc
Question: Which results are given for B3?
Answer: binding result [3]: binds; binding result [1]: no binding

B4: MD45 (antibody, V domains shown)
VH: EVQLVQSGGGLVQPGGSLRLSCAASGFTVSSNYMTWVRQAPGKGLEWVSVIYSGGSTFYADSVKGRFTISRHNSKNTLYLQMNSLRAEDTAVYYCARDLSVRGGMDVWGQGTMVTVSS
VL: EIVLTQSPGTLSLSPGERATLSCRASQSVNSSYLAWYQQKPGQAPRLLIYGASNRATGIPDRFSGSGSGTDFTLTISRLEPEDFAVYYCQQYGVSPEIIFGQGTRLEIK
notes: scFv-Fc format; also called MD45 scFv-Fc
Question: Which Kd [2] does the source give for B4 here?
Answer: 12.7 nM

Question: Does B4 bind [1]?
Answer: no binding

B5: MD67 (antibody, V domains shown)
VH: EVQLVESGGGLVQPGGSLRLSCAASGFTVSSNYMTWVRQAPGKGLEWVSVIYSGGSTFYADSVKGRFTISRHNSKNTLYLQMNSLRAEDTAVYYCARDLSVRGGMDVWGQGTTVTVSS
VL: not shown
notes: scFv-Fc format; also called MD67 scFv-Fc
Question: Does B5 bind [1]?
Answer: no binding

B6: MD17 (antibody, V domains shown)
VH: EVQLLESGGGLVQPGGSLRLSCSASGFTFSTYVMNWVRQAPGKGLEHVSGISSDGGITYYADSVKGRFTISRDNSKNTLYLQMSSLRVEDTAVYYCVKDQDSSSWYDAFDIWGQGTMVTVSS
VL: DIVMTQSPSSLSASVGDRVTITCRASQSISNYLNWYQQKLGKAPKLLTYAASRLQSGVPSRFSASGSGTEFTLTISSLQPEDFATYYCQQSYTTPLTFGGGTKLEIK
notes: scFv-Fc format; also called MD17 scFv-Fc
Question: Does B6 bind [1]?
Answer: no binding

B7: MD29 (antibody, V domains shown)
VH: QMQLVQSGGGLVQPGGSLRLSCSASGFTFSTYVMNWVRQAPGKGPEHVSGISSDGGITYYADSVKGRFTISRDNSKNTLYLQMSSLRVEDTAVYYCVKDQDSSSWYDAFDIWGQGTMVTVSS
VL: NIRLTQSPSSLSASVGDRVTITCRATQSISSYLNWYQQKPGKAPNLLIYAASSLQSGVPSRFSGSGSGTDFTLTISSLQPEDFATYYCHQTYTSPYTFGQGTKLEIK
notes: scFv-Fc format; also called MD29 scFv-Fc
Question: Does B7 bind [1]?
Answer: no binding
